Data from patent US20240139265A1.

What was measured:
Assay in all cases: UV peptide exchange + HLA class I ELISA; % of Pos control peptide
Details in all cases: remark: other sources report otherwise
[1] = target: HLA-B*07:02 class I complex (biotinylated heavy chain with beta2-microglobulin) (human)
[2] = target: HLA-A*02:01 class I complex (biotinylated heavy chain with beta2-microglobulin) (human)
[3] = target: HLA-A*24:02 class I complex (biotinylated heavy chain with beta2-microglobulin) (human)
[4] = target: HLA-A*03:01 class I complex (biotinylated heavy chain with beta2-microglobulin) (human)
[5] = target: HLA-A*01:01 class I complex (biotinylated heavy chain with beta2-microglobulin) (human)

Binder | exchange rate with Pos peptide [1] [%] | exchange rate with Pos peptide [2] [%] | exchange rate with Pos peptide [3] [%] | exchange rate with Pos peptide [4] [%] | exchange rate with Pos peptide [5] [%]
YQFTFDLLI (here or on the partner: biotinylated heavy chain) [P48 9-mer neoantigen peptide … (AR.p.H875Y missense)] | 12.8 | 99.3 | 0.1 | 4.4 | 4.3
CPMSRLRLA (here or on the partner: biotinylated heavy chain) [P46 9-mer neoantigen peptide … (TP53 (R213D) frameshift)] | 64.8 | 14.4 | -0.4 | 10.3 | 2.4
HVPKILSGK (here or on the partner: biotinylated heavy chain) [P58 9-mer neoantigen peptide … (AR (Q903H) missense)] |  | 11.8 | 0.2 | 32.5 | 2.5
QLIAMDSAI (here or on the partner: biotinylated heavy chain) [P22 9-mer neoantigen peptide … (SLC45A3-ELK4 fusion)] | 8.3 | 46.9 | 0 | 4.8 | 4.4
RAVRRMNTF (here or on the partner: biotinylated heavy chain) [P17 9-mer neoantigen peptide … (MSMB-NOCA4 fusion)] | 38.7 |  | 0.1 | 3.8 | 4.9
IPVLTRWPL (here or on the partner: biotinylated heavy chain) [P19 9-mer neoantigen peptide … (TMEM222-LOC644961 fusion)] | 91.3 | 8.2 | 0.1 | 4.1 | 5.2
YLRRQKRLK (here or on the partner: biotinylated heavy chain) [P60 9-mer neoantigen peptide … (FOXA1.p.F266L missense)] | 6.1 | 7.9 | 0.9 | 36.6 | 3.1
CYLGRQKRF (here or on the partner: biotinylated heavy chain) [P61 9-mer neoantigen peptide … (FOXA1.p.R261G missense)] |  | 5.8 | 90.3 |  | 1.7
RAKCKFSIL (here or on the partner: biotinylated heavy chain) [P56 9-mer neoantigen peptide … (SPOP(F102C) missense)] | 82.5 | 8.4 | 0.5 | 6.8 | 2.6

Results, then the binder that gave them:

exchange rate with Pos peptide [1] [%] | exchange rate with Pos peptide [2] [%] | exchange rate with Pos peptide [3] [%] | exchange rate with Pos peptide [4] [%] | exchange rate with Pos peptide [5] [%] | Binder
12.9 | 6.3 | -0.1 | 58.1 | 1.5 | RVGNCKHLK (here or on the partner: biotinylated heavy chain) [P82 9-mer neoantigen peptide … (AR-V7 splice variant)]
8.7 | 89.2 | 0.5 | 3.5 |  | LLERNSFEV (here or on the partner: biotinylated heavy chain) [P73 9-mer neoantigen peptide … (TP53 (G266E) missense)]
91.5 | 85.9 | -0.5 | 6 | 0.1 | YCMAAPMGL (here or on the partner: biotinylated heavy chain) [P76 9-mer neoantigen peptide … (AR-V3 splice variant)]
5 | 64 | 0.2 | 2.4 | 1.1 | FLFLLLPLS (here or on the partner: biotinylated heavy chain) [P87 9-mer neoantigen peptide … (AR-Intron splice variant)]
7 | 4.6 | 0.1 | 39 | 2.5 | LMAQRLLLR (here or on the partner: biotinylated heavy chain) [P97 9-mer neoantigen peptide … (FOXRED2-TXN2 fusion)]
6.7 | 7.9 | -0.1 | 51.1 | 2.5 | IVWWCPMSR (here or on the partner: biotinylated heavy chain) [P98 9-mer neoantigen peptide … (TP53 (R213D) frameshift)]
